Experimental data as given in US20020119153A1 (University of Texas, published 2002).

T1: mouse VEGF (mouse, UniProt Q00731-2 27-190, limits assumed)
T1 construct: In indirect ELISA (source not described) and in mouse 3LL tumor sections
T1 sequence (looked up): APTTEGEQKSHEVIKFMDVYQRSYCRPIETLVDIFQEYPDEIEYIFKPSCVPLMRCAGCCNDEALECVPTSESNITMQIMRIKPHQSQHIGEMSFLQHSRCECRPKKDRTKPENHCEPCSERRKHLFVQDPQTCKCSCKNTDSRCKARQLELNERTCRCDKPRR


Tests used:
mouse VEGF = target: T1, mouse VEGF; experiment: indirect ELISA
[1] = target: T2, recombinant human VEGF165 (human, UniProt P15692 27-191); experiment: printed as 'Affinity'; estimated by ELISA and surface plasmon resonance analysis
T2 construct: mature; Secreted VEGF is described as an obligate dimer; also called free VEGF; VEGF-biotin

[2] = target: T2, recombinant human VEGF165; experiment: capture ELISA: biotinylated VEGF titrated onto wells coated with the antibody, peroxidase-avidin; concentration giving 50% maximal binding
VEGF:sFlk-1 complex = target: T3, VEGF:sFlk-1 complex (human; mouse, UniProt P15692 27-191; P35918 20-762, limits assumed, biotinylated); experiment: capture ELISA: biotinylated sFlk-1 complexed with VEGF titrated onto wells coated with the antibody; concentration giving 50% maximal binding
T3 construct: mature;extracellular domain; also called VEGF:receptor complex
T3 sequence (P35918 20-762 limits assumed, one chain of several): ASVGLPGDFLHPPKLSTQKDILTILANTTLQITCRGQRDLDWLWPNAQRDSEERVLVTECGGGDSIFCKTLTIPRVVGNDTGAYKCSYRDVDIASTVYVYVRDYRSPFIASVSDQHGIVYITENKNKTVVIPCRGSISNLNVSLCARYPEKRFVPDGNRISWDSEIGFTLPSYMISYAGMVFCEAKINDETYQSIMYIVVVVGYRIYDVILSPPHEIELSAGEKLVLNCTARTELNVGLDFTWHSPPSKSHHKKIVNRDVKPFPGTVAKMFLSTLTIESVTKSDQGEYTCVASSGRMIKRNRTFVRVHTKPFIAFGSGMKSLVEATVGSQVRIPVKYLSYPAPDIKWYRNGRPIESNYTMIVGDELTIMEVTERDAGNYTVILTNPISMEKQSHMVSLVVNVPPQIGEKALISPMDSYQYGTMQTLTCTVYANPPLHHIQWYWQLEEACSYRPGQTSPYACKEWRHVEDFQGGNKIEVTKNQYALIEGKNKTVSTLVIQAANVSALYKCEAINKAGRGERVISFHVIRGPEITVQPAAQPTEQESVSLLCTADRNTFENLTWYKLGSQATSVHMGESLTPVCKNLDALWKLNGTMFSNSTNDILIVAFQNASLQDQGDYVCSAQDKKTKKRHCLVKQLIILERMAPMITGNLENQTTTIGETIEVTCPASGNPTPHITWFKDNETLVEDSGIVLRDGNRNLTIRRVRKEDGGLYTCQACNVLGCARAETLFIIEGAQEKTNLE

[3] = target: T2, recombinant human VEGF165; experiment: ELISA on VEGF coated wells, HRP-labelled anti-mouse IgG and OPD

Row | Binder | binding result (mouse VEGF) | Kd [1] [nM] | EC50 [2] [nM] | EC50 (VEGF:sFlk-1 complex) [nM] | EC50 [3] [nM]
1 | monoclonal antibody 2C3 (ATCC PTA 1595) (antibody, V domains shown, also called 2C3 IgG) VH: QVQLQESGPELVKPGASVKMSCKASGYTFTSYVFHWVKQKPGQGLEWIGYINPYNDVTKYNEKFKGKATLTSDKSSSTAYMELSSLTSEDSAVYYCASYYGSSYGYYAMDDWGQGTTVTVSS VL: DIQLTQSPASLSVSAGEKVTMSCKSSQSLLNSGNQKNYLAWYQQKPGQPPKLLIHGASTRESGVPDRFTGSGSGTDFTLTISSVQAEDLAVYYCQNDYSYPLTFGAGTKLELKR | no binding | 1 | 1 | 150 | 
2 | 2C3-GUS conjugate (other, SATA-modified, deacetylated; SMCC-modified IgG, linked by thioether to SATA-modified GUS, Chemical conjugate of 2C3 IgG (mouse IgG2a,k) and 6-His GUS; GUS runs as a tetramer of about 300 kDa on gel filtration; not shown: N-terminal 6x histidine tag encoded by vector H6pQE60) VH: KLQVQLQESGPELVKPGASVKMSCKASGYTFTSYVFHWVKQKPGQGLEWIGYINPYNDVTKYNEKFKGKATLTSDKSSSTAYMELSSLTSEDSAVYYCASYYGSSYGYYAMDDWGQGTTVTVSSGGG VL: DIQLTQSPASLSVSAGEKVTMSCKSSQSLLNSGNQKNYLAWYQQKPGQPPKLLIHGASTRESGVPDRFTGSGSGTDFTLTISSVQAEDLAVYYCQNDYSYPLTFGAGTKLELKRL MLRPVETPTREIKKLDGLWAFSLDRENCGIDQRWWESALQESRAIAVPGSFNDQFADADIRNYAGNVWYQREVFIPKGWAGQRIVLRFDAVTHYGKVWVNNQEVMEHQGGYTPFEADVTPYVIAGKSVRITVCVNNELNWQTIPPGMVITDENGKKKQSYFHDFFNYAGIHRSVMLYTTPNTWVDDITVVTHVAQDCNHASVDWQVVANGDVSVELRDADQQVVATGQGTSGTLQVVNPHLWQPGEGYLYELCVTAKSQTECDIYPLRVGIRSVAVKGEQFLINHKPFYFTGFGRHEDADLRGKGFDNVLMVHDHALMDWIGANSYRTSHYPYAEEMLDWADEHGIVVIDETAAVGFNLSLGIGFEAGNKPKELYSEEAVNGETQQAHLQAIKELIARDKNHPSVVMWSIANEPDTRPQGAREYFAPLAEATRKLDPTRPITCVNVMFCDAHTDTISDLFDVLCLNRYYGWYVQSGDLETAEKVLEKELLAWQEKLHQPIIITEYGVDTLAGLHSMYTDMWSEEYQCAWLDMYHRVFDRVSAVVGEQVWNFADFATSQGILRVGGNKKGIFTRDRKPKSAAFLLQKRWTGMNFGEKPQQGGKQ |  |  |  |  | 0.1
